Consider one molecule from PMC9482650, “Quantitative fragmentomics allow affinity mapping of interactomes” (Nature Communications, 2022).

The term pKd denotes the Kd on a negative log10 scale, so that one unit is a factor of ten.

T1: SNTG1, Q9NSN8
T1 sequence (Q9NSN8 52-150, limits assumed, looked up): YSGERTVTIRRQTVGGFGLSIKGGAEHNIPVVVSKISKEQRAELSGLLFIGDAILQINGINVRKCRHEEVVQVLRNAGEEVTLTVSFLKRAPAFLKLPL

T2: NHERF3_1, Q5T2W1
T2 sequence (Q5T2W1 4-100, limits assumed, looked up): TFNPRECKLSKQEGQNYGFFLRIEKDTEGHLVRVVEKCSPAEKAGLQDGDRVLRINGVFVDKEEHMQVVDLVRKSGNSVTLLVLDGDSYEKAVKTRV

T3: SNTB1, Q13884
T3 sequence (Q13884 107-205, limits assumed, looked up): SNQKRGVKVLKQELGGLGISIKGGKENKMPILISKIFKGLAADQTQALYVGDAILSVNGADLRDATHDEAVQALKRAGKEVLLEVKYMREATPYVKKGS

T4: MPDZ_5, O75970
T4 sequence (O75970 695-796, limits assumed, looked up): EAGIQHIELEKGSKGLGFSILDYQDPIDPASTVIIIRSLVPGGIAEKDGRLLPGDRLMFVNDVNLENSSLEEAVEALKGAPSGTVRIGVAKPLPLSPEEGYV

T5: TJP3_3, O95049
T5 sequence (O95049 375-456, limits assumed, looked up): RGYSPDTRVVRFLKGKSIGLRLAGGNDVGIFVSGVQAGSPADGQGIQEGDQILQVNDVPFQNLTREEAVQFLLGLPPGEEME

T6: SNTG2, Q9NY99
T6 sequence (Q9NY99 68-166, limits assumed, looked up): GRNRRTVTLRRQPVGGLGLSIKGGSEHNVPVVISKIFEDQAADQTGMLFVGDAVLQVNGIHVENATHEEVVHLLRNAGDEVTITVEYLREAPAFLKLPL

T7: APBA2_1, Q99767
T7 sequence (Q99767 563-664, limits assumed, looked up): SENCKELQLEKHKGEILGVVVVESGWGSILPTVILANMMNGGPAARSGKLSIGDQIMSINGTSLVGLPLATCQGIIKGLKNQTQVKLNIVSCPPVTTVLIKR

T8: APBA3_1, O96018
T8 sequence (O96018 389-490, limits assumed, looked up): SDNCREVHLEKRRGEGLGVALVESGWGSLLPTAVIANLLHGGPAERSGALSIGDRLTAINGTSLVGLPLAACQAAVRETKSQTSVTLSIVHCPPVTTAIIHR

T9: GRIP1_5, Q9Y3R0
T9 sequence (Q9Y3R0 568-668, limits assumed, looked up): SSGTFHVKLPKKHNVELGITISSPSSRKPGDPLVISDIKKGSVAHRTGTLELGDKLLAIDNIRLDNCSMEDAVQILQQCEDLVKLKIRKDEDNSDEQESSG

T10: GRIP1_2, Q9Y3R0
T10 sequence (Q9Y3R0 145-248, limits assumed, looked up): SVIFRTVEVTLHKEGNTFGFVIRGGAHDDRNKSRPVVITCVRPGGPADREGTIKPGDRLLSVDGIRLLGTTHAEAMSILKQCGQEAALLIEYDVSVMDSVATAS

T11: SHANK1, Q9Y566
T11 sequence (Q9Y566 658-767, limits assumed, looked up): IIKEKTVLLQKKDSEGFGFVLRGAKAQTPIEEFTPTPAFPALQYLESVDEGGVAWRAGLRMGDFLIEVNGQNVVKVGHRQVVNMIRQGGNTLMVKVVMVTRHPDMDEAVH

T12: APBA1_1, Q02410
T12 sequence (Q02410 651-752, limits assumed, looked up): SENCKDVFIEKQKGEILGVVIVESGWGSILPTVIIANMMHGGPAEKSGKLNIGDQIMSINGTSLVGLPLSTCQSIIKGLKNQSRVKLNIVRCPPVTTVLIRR

B1: MARCHF9, Q86YJ5 (peptide)
chain: REVVMRVTTV

Chain of GRIP2_6, Q9C0E4 (Q9C0E4 648-740): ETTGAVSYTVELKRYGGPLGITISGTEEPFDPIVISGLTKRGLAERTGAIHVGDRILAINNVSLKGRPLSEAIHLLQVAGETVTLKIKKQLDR
Chain of GRIP2_7, Q9C0E4 (Q9C0E4 934-1023): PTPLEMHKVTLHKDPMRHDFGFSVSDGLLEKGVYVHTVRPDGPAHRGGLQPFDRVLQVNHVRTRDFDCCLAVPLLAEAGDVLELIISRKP
Chain of AHNAK1, Q09666 (Q09666 4-100): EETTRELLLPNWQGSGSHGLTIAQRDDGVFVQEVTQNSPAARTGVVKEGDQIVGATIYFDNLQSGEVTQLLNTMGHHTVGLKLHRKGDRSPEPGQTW

The target of the first test is T1, SNTG1, Q9NSN8. Kind of test: holdup assay. On the set-up: key: below the threshold = too weak to quantify, mostly under pKd 3.1 to 4. The following applies: plain residues with an end cap or a label only (N-terminal biotin on a linker: ado-ado).
For the molecule B1, the pKd came out at 4.89.

The next test addresses DLG2_3, Q15700. Kind of test: holdup assay. On the set-up: key: below the threshold = too weak to quantify, mostly under pKd 3.1 to 4. Particulars: plain residues with an end cap or a label only (N-terminal biotin on a linker: ado-ado).
As for B1, the pKd stood at 4.92.

In another test the target is T2, NHERF3_1, Q5T2W1. Description: holdup assay. On the set-up: key: below the threshold = too weak to quantify, mostly under pKd 3.1 to 4. The following applies: plain residues with an end cap or a label only (N-terminal biotin on a linker: ado-ado).
As for B1, the pKd result is listed as “below the threshold”.

In another test the target is T3, SNTB1, Q13884. Kind of test: holdup assay. Set-up: key: below the threshold = too weak to quantify, mostly under pKd 3.1 to 4. The following applies: plain residues with an end cap or a label only (N-terminal biotin on a linker: ado-ado).
Turning to B1, the pKd came out at 5.37.

The target of the next test is MAGI1_1, Q96QZ7. Description: holdup assay. The following applies: plain residues with an end cap or a label only (N-terminal biotin on a linker: ado-ado). On the set-up: key: below the threshold = too weak to quantify, mostly under pKd 3.1 to 4.
Chain of MAGI1_1, Q96QZ7 (Q96QZ7 1-106): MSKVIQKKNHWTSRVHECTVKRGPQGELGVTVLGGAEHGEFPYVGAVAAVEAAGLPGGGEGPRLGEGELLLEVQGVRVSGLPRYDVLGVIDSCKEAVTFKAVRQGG
As to B1, the pKd result is given as “below the threshold”.

A further test concerns the target GRIP2_7, Q9C0E4. Description: holdup assay. Set-up: key: below the threshold = too weak to quantify, mostly under pKd 3.1 to 4. The following applies: plain residues with an end cap or a label only (N-terminal biotin on a linker: ado-ado).
For B1, the pKd entry is recorded as “below the threshold”.

The target in a further test is DLG1_3, Q12959. Kind of test: holdup assay. On the set-up: key: below the threshold = too weak to quantify, mostly under pKd 3.1 to 4. Particulars: plain residues with an end cap or a label only (N-terminal biotin on a linker: ado-ado).
Chain of DLG1_3, Q12959 (Q12959 457-571): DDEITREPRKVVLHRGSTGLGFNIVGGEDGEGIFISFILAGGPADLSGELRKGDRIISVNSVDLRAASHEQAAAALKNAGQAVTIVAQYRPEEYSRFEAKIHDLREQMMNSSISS
Molecule B1 gave a pKd of 5.01.

A further test has as its target GRIP2_6, Q9C0E4. Kind of test: holdup assay. On the set-up: key: below the threshold = too weak to quantify, mostly under pKd 3.1 to 4. The following applies: plain residues with an end cap or a label only (N-terminal biotin on a linker: ado-ado).
With B1, the negative-log Kd (pKd) result is recorded as “below the threshold”.

A further test has as its target T4, MPDZ_5, O75970. Kind of test: holdup assay. Particulars: plain residues with an end cap or a label only (N-terminal biotin on a linker: ado-ado). On the set-up: key: below the threshold = too weak to quantify, mostly under pKd 3.1 to 4.
Regarding B1, the pKd result was “below the threshold”.

Another test has as its target T5, TJP3_3, O95049. Description: holdup assay. On the set-up: key: below the threshold = too weak to quantify, mostly under pKd 3.1 to 4. The following applies: plain residues with an end cap or a label only (N-terminal biotin on a linker: ado-ado).
B1: the pKd entry was “below the threshold”.

The target of the next test is PARD3_3, Q8TEW0. Description: holdup assay. On the set-up: key: below the threshold = too weak to quantify, mostly under pKd 3.1 to 4. Particulars: plain residues with an end cap or a label only (N-terminal biotin on a linker: ado-ado).
Chain of PARD3_3, Q8TEW0 (Q8TEW0 582-685): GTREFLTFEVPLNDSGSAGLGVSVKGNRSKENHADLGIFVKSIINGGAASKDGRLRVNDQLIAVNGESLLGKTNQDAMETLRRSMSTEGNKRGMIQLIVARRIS
As for B1, the pKd entry is recorded as “below the threshold”.

A further test concerns the target AHNAK1, Q09666. Description: holdup assay. On the set-up: key: below the threshold = too weak to quantify, mostly under pKd 3.1 to 4. Particulars: plain residues with an end cap or a label only (N-terminal biotin on a linker: ado-ado).
As to B1, the pKd result is “below the threshold”.

The next test deals with Inadl_8, Q8NI35. Kind of test: holdup assay. Set-up: key: below the threshold = too weak to quantify, mostly under pKd 3.1 to 4. Particulars: plain residues with an end cap or a label only (N-terminal biotin on a linker: ado-ado).
Chain of Inadl_8, Q8NI35 (Q8NI35 1425-1530): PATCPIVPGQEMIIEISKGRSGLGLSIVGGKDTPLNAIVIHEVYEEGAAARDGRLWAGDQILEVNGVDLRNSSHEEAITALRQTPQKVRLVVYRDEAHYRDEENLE
Molecule B1 registered a pKd of 5.46.

A further test addresses T6, SNTG2, Q9NY99. Description: holdup assay. Set-up: key: below the threshold = too weak to quantify, mostly under pKd 3.1 to 4. Particulars: plain residues with an end cap or a label only (N-terminal biotin on a linker: ado-ado).
In turn, B1 registered a pKd of 4.65.

A further test has as its target T7, APBA2_1, Q99767. Kind of test: holdup assay. On the set-up: key: below the threshold = too weak to quantify, mostly under pKd 3.1 to 4. The following applies: plain residues with an end cap or a label only (N-terminal biotin on a linker: ado-ado).
As to B1, the pKd result is on record as “below the threshold”.

Another test concerns the target T8, APBA3_1, O96018. Description: holdup assay. On the set-up: key: below the threshold = too weak to quantify, mostly under pKd 3.1 to 4. Particulars: plain residues with an end cap or a label only (N-terminal biotin on a linker: ado-ado).
As to B1, the pKd entry is given as “below the threshold”.

A further test deals with GOPC, Q9HD26. Description: holdup assay. On the set-up: key: below the threshold = too weak to quantify, mostly under pKd 3.1 to 4. The following applies: plain residues with an end cap or a label only (N-terminal biotin on a linker: ado-ado).
Regarding B1, the pKd was 4.9.

Another test has as its target T9, GRIP1_5, Q9Y3R0. Kind of test: holdup assay. On the set-up: key: below the threshold = too weak to quantify, mostly under pKd 3.1 to 4. The following applies: plain residues with an end cap or a label only (N-terminal biotin on a linker: ado-ado).
For the molecule B1, the pKd result is “below the threshold”.

Another test deals with T10, GRIP1_2, Q9Y3R0. Description: holdup assay. On the set-up: key: below the threshold = too weak to quantify, mostly under pKd 3.1 to 4. The following applies: plain residues with an end cap or a label only (N-terminal biotin on a linker: ado-ado).
In the case of B1, the pKd entry is “below the threshold”.

The next test concerns the target T11, SHANK1, Q9Y566. Kind of test: holdup assay. The following applies: plain residues with an end cap or a label only (N-terminal biotin on a linker: ado-ado). On the set-up: key: below the threshold = too weak to quantify, mostly under pKd 3.1 to 4.
As to B1, the pKd entry is reported as “below the threshold”.

In a further test the target is GRID2IP_2, A4D2P6. Description: holdup assay. Set-up: key: below the threshold = too weak to quantify, mostly under pKd 3.1 to 4. The following applies: plain residues with an end cap or a label only (N-terminal biotin on a linker: ado-ado).
Chain of GRID2IP_2, A4D2P6 (A4D2P6 272-370): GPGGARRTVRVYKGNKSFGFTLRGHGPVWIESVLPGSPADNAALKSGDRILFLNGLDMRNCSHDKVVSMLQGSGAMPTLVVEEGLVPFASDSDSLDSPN
As to B1, the pKd was found to be 4.13.

For a further test, the target named is Inadl_9, Q8NI35. Description: holdup assay. Set-up: key: below the threshold = too weak to quantify, mostly under pKd 3.1 to 4. Particulars: plain residues with an end cap or a label only (N-terminal biotin on a linker: ado-ado).
Chain of Inadl_9, Q8NI35 (Q8NI35 1530-1615): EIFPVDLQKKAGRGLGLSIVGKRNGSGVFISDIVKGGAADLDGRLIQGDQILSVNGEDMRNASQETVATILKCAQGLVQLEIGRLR
For the molecule B1, the pKd is 3.75.

Another test addresses T12, APBA1_1, Q02410. Kind of test: holdup assay. Set-up: key: below the threshold = too weak to quantify, mostly under pKd 3.1 to 4. Particulars: plain residues with an end cap or a label only (N-terminal biotin on a linker: ado-ado).
As to B1, the pKd entry was “below the threshold”.

In the next test the target is GORASP1, Q9BQQ3. Description: holdup assay. Set-up: key: below the threshold = too weak to quantify, mostly under pKd 3.1 to 4. Particulars: plain residues with an end cap or a label only (N-terminal biotin on a linker: ado-ado).
Chain of GORASP1, Q9BQQ3 (Q9BQQ3 1-208): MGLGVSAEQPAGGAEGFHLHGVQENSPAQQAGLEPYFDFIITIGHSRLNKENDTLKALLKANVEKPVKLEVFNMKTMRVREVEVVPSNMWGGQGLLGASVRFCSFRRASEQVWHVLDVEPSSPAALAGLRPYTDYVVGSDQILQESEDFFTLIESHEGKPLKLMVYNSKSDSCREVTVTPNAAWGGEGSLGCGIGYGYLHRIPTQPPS
As to B1, the pKd was found to be 4.31.
